Earlier results on 1 substance are cited in publication PMC4692369.

This data set has as its target Tyr57 (UniProt position 57, QIAAFYRQGLG). The data set is described as follows: UV-vis. Conditions: apo enzyme.

Regarding “Ketosteroid isomerase D40N (earlier construct without LVPR) (Pseudomonas putida; D40N)”, the pKa is 6.3.
